Test [1] concerns the target phosphorylated PI4KB (residues 128-799, internal deletion 423-522, T292R, phosphorylated at S294 by PKA) (human) (UniProt Q9UBF8). Briefly: AUC; sedimentation velocity, SEC buffer, 20 °C, 42 000 rpm; 14-3-3 + P-PI4KB + Rab11; stoichiometries independent of Rab11 nucleotide state.
Test [2] has the same target. In words: AUC; sedimentation velocity, SEC buffer, 20 °C, 42 000 rpm; P-PI4KB alone (20 µM) and with Rab11; stoichiometries independent of Rab11 nucleotide state.
For test [3], the target named is PI4KB (Homo sapiens) (UniProt Q9UBF8). The following applies: cited from earlier work.
Chain of PI4KB (Homo sapiens) (Q9UBF8 2-816): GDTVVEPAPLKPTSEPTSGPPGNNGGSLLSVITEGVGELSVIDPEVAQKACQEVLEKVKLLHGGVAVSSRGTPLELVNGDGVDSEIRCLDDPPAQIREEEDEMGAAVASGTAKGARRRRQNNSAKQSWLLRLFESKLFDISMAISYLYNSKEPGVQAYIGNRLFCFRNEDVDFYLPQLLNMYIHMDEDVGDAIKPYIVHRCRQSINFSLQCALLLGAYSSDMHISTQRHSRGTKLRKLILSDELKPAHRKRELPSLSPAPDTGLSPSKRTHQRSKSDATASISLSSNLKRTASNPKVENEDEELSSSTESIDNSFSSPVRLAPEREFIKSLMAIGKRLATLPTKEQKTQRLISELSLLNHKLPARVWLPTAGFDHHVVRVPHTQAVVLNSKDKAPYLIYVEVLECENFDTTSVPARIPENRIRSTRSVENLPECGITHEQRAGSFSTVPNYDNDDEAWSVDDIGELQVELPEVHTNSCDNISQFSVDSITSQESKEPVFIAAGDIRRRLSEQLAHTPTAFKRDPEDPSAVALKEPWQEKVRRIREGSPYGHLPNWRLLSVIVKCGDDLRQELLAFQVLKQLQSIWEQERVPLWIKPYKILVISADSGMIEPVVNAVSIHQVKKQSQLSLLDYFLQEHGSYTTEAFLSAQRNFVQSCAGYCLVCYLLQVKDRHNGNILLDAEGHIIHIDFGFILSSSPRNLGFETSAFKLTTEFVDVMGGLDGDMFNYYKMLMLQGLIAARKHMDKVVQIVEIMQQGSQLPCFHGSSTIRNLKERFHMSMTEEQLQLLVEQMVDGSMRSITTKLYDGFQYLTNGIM
Test [4] addresses pseudo-wt PI4KB labeled with Atto488 (human) (UniProt Q9UBF8). In words: fluorescence cross-correlation spectroscopy (FCCS); on GUV membrane; Atto488-PI4KB attached by tethered ACBD3; mCherry-Rab11-His tethered to the membrane via His tag; proteins approximately 50 nM.
Test [5] has as its target 14-3-3 (UniProt P63104). Briefly: AUC; sedimentation velocity, SEC buffer, 20 °C, 42 000 rpm; 14-3-3 + P-PI4KB + Rab11; stoichiometries independent of Rab11 nucleotide state.

Chain of phosphorylated PI4KB (residues 128-799, internal deletion 423-522, T292R, phosphorylated at S294 by PKA) (human) (Q9UBF8 other isoform, or with tags, fused parts or gaps with the stated changes): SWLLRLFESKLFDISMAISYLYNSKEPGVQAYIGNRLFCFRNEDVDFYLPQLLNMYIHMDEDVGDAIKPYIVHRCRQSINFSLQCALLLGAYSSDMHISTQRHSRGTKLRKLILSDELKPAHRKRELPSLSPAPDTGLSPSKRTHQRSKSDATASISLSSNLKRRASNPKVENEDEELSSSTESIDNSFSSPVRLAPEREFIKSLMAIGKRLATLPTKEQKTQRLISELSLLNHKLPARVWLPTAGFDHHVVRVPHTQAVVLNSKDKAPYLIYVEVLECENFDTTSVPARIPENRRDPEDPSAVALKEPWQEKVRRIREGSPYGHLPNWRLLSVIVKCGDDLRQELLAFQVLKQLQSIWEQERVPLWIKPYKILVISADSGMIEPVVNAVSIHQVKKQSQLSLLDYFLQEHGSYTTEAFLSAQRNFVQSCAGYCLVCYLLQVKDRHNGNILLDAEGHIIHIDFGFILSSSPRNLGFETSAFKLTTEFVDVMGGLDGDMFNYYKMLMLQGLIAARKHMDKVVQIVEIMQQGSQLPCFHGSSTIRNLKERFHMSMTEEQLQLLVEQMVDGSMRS
Chain of pseudo-wt PI4KB labeled with Atto488 (human) (Q9UBF8 other isoform, or with tags, fused parts or gaps): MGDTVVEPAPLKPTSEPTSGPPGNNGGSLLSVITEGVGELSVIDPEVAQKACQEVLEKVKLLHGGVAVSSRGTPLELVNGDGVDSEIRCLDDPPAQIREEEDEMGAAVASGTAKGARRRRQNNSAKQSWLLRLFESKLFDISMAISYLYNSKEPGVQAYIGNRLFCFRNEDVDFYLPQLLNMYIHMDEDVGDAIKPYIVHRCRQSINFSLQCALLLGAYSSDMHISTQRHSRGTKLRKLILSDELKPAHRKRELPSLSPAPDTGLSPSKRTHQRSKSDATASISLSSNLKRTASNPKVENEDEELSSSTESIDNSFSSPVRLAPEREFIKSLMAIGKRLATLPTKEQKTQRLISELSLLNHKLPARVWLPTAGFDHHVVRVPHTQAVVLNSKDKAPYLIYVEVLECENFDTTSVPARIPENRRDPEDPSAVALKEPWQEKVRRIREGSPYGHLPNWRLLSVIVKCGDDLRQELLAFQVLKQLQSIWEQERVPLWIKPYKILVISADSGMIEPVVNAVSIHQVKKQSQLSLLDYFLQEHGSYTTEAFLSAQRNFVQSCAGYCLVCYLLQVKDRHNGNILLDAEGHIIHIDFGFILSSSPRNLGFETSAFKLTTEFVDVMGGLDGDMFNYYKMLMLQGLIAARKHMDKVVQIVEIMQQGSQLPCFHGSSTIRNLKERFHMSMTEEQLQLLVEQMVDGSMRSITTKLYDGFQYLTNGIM
Chain of ACBD3 (Q9H3P7 whole entry): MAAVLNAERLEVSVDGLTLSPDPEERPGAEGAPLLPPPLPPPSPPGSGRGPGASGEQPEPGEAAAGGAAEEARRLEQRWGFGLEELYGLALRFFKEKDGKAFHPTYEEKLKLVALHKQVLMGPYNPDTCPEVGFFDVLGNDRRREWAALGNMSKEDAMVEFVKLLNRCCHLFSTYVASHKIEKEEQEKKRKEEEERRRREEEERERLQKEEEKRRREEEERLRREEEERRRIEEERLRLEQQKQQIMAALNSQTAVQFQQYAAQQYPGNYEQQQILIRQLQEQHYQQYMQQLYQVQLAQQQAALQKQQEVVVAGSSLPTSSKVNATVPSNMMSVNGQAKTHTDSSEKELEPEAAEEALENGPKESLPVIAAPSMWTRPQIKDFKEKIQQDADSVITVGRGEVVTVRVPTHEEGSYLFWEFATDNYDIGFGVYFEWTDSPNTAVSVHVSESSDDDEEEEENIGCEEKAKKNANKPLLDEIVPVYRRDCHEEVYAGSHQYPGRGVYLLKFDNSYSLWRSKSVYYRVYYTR

Regarding “Rab11 (from UniProt P62491 1-216) (natural protein)”, the stoichiometry N in test [1] and in test [2] was 1 in each case.

With ACBD3 (from UniProt Q9H3P7), the Kd in test [3] is 0.3 µM.

Take “mCherry-Rab11-His (membrane tethered) (from UniProt P62491 1-216) (natural protein)”: in test [4], the percent of Rab11 in the complex was 10%.

Take “14-3-3 (from UniProt P63104 1-230) (natural protein)”: the stoichiometry N in test [5] turned out to be 2. Further, in test [1], the stoichiometry N (14-3-3 chains per PI4KB) worked out at 2.
